Experimental findings from article PMC3783447, “Tropine Forming Tropinone Reductase Gene from Withania somnifera (Ashwagandha): Biochemical Characteristics of the Recombinant Enzyme and Novel Physiological Overtones of Tissue-Wide Gene Expression Patterns” (PLoS ONE, 2013) are described below.

As usually defined, the Km is the concentration of substrate that gives half-maximal velocity. A word on the stoichiometry N: it is the number of molecules, sites or subunits per partner or assembly. Usually kcat stands for the number of substrate molecules converted per active site and unit of time at saturation. In general, kcat/Km refers to the second-order rate constant that governs catalysis at low substrate concentration.

The target in data set [1] is T1, WsTR-I (Withania somnifera, UniProt U5PUZ1).
T1 construct: His6-tagged (pET28a NdeI/BamHI), E. coli BL21 (DE3); Ni-NTA and gel filtration; homodimer about 60 kDa
As to the kind of experiment: spectrophotometric A340, NADPH oxidation. Format: biochemical. As to conditions: forward reaction, MES-NaOH pH 6.7, 30°C, kcat per monomer, unit inferred from kcat/Km. The source says:
(§1) spectrophotometric A340, NADPH oxidation on WsTR-I

In data set [2] the target is Withania somnifera tropine forming tropinone reductase (WsTR-I), recombinant His6-WsTR-I (Withania somnifera). Nature of the data set: SEC; calibrated Sephadex G-150 column (70.0 cm x 0.6 cm), 0.1 M MES-NaOH pH 6.7 with 0.1 M NaCl, 5 ml/h; markers ovalbumin, BSA, alcohol dehydrogenase; elution followed by catalytic activity; native mass about 60 kDa compared with the 29.41 kDa subunit. On the technique in general: Size exclusion chromatography separates by hydrodynamic size, large species first.

For data set [3], the system named is CN1[C@@H]2CC[C@H]1CC(=O)C2. Nature of the data set: spectrophotometric A340, NADPH oxidation. As to conditions: forward reaction, MES-NaOH pH 6.7, 30°C, kcat per monomer, unit inferred from kcat/Km. Format: biochemical, Withania somnifera.
Description: as §1

For data set [4], the target named is T1, WsTR-I. As to the kind of experiment: spectrophotometric A340, NADP+ reduction. Format: biochemical. As to conditions: reverse reaction; tropine; 30°C; printed kcat 0.54 (no unit) disagrees with printed kcat/Km. The source says:
spectrophotometric A340, NADP+ reduction on WsTR-I

Take `CC1CCCC(=O)C1` (stereo not shown) [3-methyl-cyclohexanone]: the Km in data set [1] (NADPH) stood at 2110 µM.
On to “Withania somnifera tropine forming tropinone reductase (WsTR-I), recombinant His6-WsTR-I (enzyme)”, for which the stoichiometry N in data set [2] worked out at 2.
As for `NC(=O)C1=CN([C@@H]2O[C@H](COP(=O)(O)OP(=O)(O)OC[C@H]3O[C@@H](n4cnc5c(N)ncnc54)[C@H](OP(=O)(O)O)[C@@H]3O)[C@@H](O)[C@H]2O)C=CC1` [NADPH], the Km in data set [1] (tropinone) was determined as 0.43 µM.
As for WsTR-I (Withania somnifera), in data set [3], the Km was found to be 1270 µM, the kcat was 9.51 s⁻¹ and the kcat/Km was 7490 M⁻¹ s⁻¹.
Regarding `NC(=O)c1ccc[n+]([C@@H]2O[C@H](COP(=O)(O)OP(=O)(O)OC[C@H]3O[C@@H](n4cnc5c(N)ncnc54)[C@H](OP(=O)(O)O)[C@@H]3O)[C@@H](O)[C@H]2O)c1` [NADP^+], the Km in data set [4] turned out to be 96.2 µM.
